Experiment [1] has as its target CspA-His6 (Clostridioides difficile). The experiment can be described thus: SEC; individually Ni-affinity-purified Csp-His6 proteins on Superdex 200 Increase 10/300 GL; 200 mM NaCl, 10 mM Tris-HCl pH 7.5, 5% glycerol, 1 mM dithiothreitol; apparent MW from gel filtration standard.
For experiment [2], the target named is CspB-His6 (Clostridioides difficile). Described as above.
Experiment [3] has as its target CspC-CPD-His6 (Clostridioides difficile). The experiment can be described thus: SEC; elution fraction of a CspC-CPD-His6:CspA co-affinity purification (proteins co-expressed in E. coli) on Superdex 200 Increase 10/300 GL; 200 mM NaCl, 10 mM Tris-HCl pH 7.5, 5% glycerol, 1 mM dithiothreitol; fractions on SDS-PAGE; complex peak re-run on SEC; also run with TA and CaCl2 without difference.

Consider 3 substances from paper PMC12880746.

For the substance CspA-His6 (domain or fragment), the stoichiometry N in experiment [1] was 2.
As for CspB-His6 (domain or fragment), the stoichiometry N in experiment [2] worked out at 2.
Consider “untagged CspA (CspA_(583-1132)) (domain or fragment)”, for which the stoichiometry N (ratio CspA:CspC-CPD-His6) in experiment [3] is 1.
